Reference: patent US20250084176A1 (F STAR BETA, published 2025)

Biological target: T1, hCD137-mFc-Avi (human; mouse, UniProt Q07011 24-186, one biotin on the Avi sequence of each monomer (BirA); unbiotinylated in the SPR of Example 5.6)
T1 construct: Made in-house in HEK293-6E; also called human CD137-mFc-Avi; dimeric human CD137; not shown: mouse IgG2a Fc domain (mIgG2a Fc)
Experiment: flow cytometry of the yeast-displayed clone, 10 nM dimeric human antigen

T1 sequence (Q07011 24-186): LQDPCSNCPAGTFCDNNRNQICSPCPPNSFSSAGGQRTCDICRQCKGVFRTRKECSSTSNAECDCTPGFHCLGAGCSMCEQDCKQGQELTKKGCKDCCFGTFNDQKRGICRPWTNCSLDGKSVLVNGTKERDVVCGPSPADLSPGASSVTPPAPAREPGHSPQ

% APC positive cells | Binder
> 10% | FS22-172-004, yeast-displayed clone (designed binder) GQPREPQVYTLPPSRDELNYIYPPYNQVSLTCLVKGFYPSDIAVEWESNGQPENNYKTTPPVLDSDGSFFLYSKLTVGADRWLEGNVFSCSVMHEALHNHYTQKSLSLSPG
> 10% | FS22-172-002, yeast-displayed clone (designed binder) GQPREPQVYTLPPSRDELPFQMPPYNQVSLTCLVKGFYPSDIAVEWESNGQPENNYKTTPPVLDSDGSFFLYSKLTVGADRWLEGNVFSCSVMHEALHNHYTQKSLSLSPG
> 30% | FS22-053-012, yeast-displayed clone (designed binder) GQPREPQVYTLPPSRDELNPPYLFSNQVSLTCLVKGFYPSDIAVEWESNGQPENNYKTTPPVLDSDGSFFLYSKLTVDHMRWLEGNVFSCSVMHEALHNHYTQKSLSLSPG
> 30% | FS22-053-009, yeast-displayed clone (designed binder) GQPREPQVYTLPPSRDELNPPYLFSNQVSLTCLVKGFYPSDIAVEWESNGQPENNYKTTPPVLDSDGSFFLYSKLTVEHTRWLDGNVFSCSVMHEALHNHYTQKSLSLSPG
> 10% | FS22-172-003, yeast-displayed clone (designed binder) GQPREPQVYTLPPSRDELPYIIPPYNQVSLTCLVKGFYPSDIAVEWESNGQPENNYKTTPPVLDSDGSFFLYSKLTVGADRWLEGNVFSCSVMHEALHNHYTQKSLSLSPG
> 30% | FS22-053-010, yeast-displayed clone (designed binder) GQPREPQVYTLPPSRDELNPPYLFSNQVSLTCLVKGFYPSDIAVEWESNGQPENNYKTTPPVLDSDGSFFLYSKLTVDYMRWLDGNVFSCSVMHEALHNHYTQKSLSLSPG
> 30% | FS22-053-011, yeast-displayed clone (designed binder) GQPREPQVYTLPPSRDELNPPYLFSNQVSLTCLVKGFYPSDIAVEWESNGQPENNYKTTPPVLDSDGSFFLYSKLTVDYWRWTDGNVFSCSVMHEALHNHYTQKSLSLSPG
> 10% | FS22-172-001, yeast-displayed clone (designed binder) GQPREPQVYTLPPSRDELPFVMPPYNQVSLTCLVKGFYPSDIAVEWESNGQPENNYKTTPPVLDSDGSFFLYSKLTVGADRWLEGNVFSCSVMHEALHNHYTQKSLSLSPG
> 10% | FS22-172-005, yeast-displayed clone (designed binder) GQPREPQVYTLPPSRDELQQVYPPYNQVSLTCLVKGFYPSDIAVEWESNGQPENNYKTTPPVLDSDGSFFLYSKLTVGADRWLEGNVFSCSVMHEALHNHYTQKSLSLSPG
> 10% | FS22-172-006, yeast-displayed clone (designed binder) GQPREPQVYTLPPSRDELRKYYPPYNQLSLTCLVKGFYPSDIAVEWESNGQPENNYKTTPPVLDSDGSFFLYSKLTVGADRWLEGNVFSCSVMHEALHNHYTQKSLSLSPG
> 30% | FS22-053-008, yeast-displayed clone (designed binder) GQPREPQVYTLPPSRDELNPPYLFSNQVSLTCLVKGFYPSDIAVEWESNGQPENNYKTTPPVLDSDGSFFLYSKLTVDYWRWLEGNVFSCSVMHEALHNHYTQKSLSLSPG
